Target: IGF-1R of the transfected cells of Example 10 (confocal microscopy) (Homo sapiens (Human)) (UniProt P08069)
Experiment: confocal microscopy, colocalization in cells transfected in the presence of the small molecule NSC 250435

- percentage of interaction: 30%
Substance: GFP-fused FAK-NT2 (a.a. 127-243)
